B1: SPR2 (38-570)-GFP (domain or fragment, Arabidopsis thaliana, UniProt Q9T041 38-570, looked up)
chain: AMVELKQKILTSISKLADRDTYQIAVEDLEKTIQSLTPETLPMFLNCLYDSCSDPKPAVKKECLHLLSYVCSLHCDSTAAHLTKIIAQIVKRLKDSDSGVRDACRDTIGALSGIYLKGKEEGTNTGSASLAVGLFVKPLFEAMGEQNKVVQSGASMCMARMVESAASPPVTSFQKLCPRICKLLSNSSFLAKASLLPVVSSLSQVGAIAPQSLESLLESIHDCLGSTDWVTRKAAAETLTALASHSSGLIKEKTDSTITVLETCRFDKIKPVRESVTEALQLWKKISGKYVDGASDDSKLSASEQLGSEKNGEKRSNLADLMKKEASDGSTLSPDSASKGKGCFPEKAVGLLKKKAPVLSDKDFNPEFFQRLERRQSVEVVVPRRCKNNDEEESGLDDLNAMGSSNRLKNTQADDKQVKGRFDGNGSQARTSGDDKAGVVNGKETPGHHAPVSNTDNQSEGSFTSNRGNWSAIQRQLLQLERQQTNLMNMLQEFIGGSHDSMVTLEGRVRGLERIVEDMARDLSISSGRRANL
B2: full-length SPR2-GFP protein (natural protein, Arabidopsis thaliana, UniProt Q9T041 1-864, looked up)
chain: MSTPTTSGSAAKPTRPARSSSLATRSCSNSGSLTSFQAMVELKQKILTSISKLADRDTYQIAVEDLEKTIQSLTPETLPMFLNCLYDSCSDPKPAVKKECLHLLSYVCSLHCDSTAAHLTKIIAQIVKRLKDSDSGVRDACRDTIGALSGIYLKGKEEGTNTGSASLAVGLFVKPLFEAMGEQNKVVQSGASMCMARMVESAASPPVTSFQKLCPRICKLLSNSSFLAKASLLPVVSSLSQVGAIAPQSLESLLESIHDCLGSTDWVTRKAAAETLTALASHSSGLIKEKTDSTITVLETCRFDKIKPVRESVTEALQLWKKISGKYVDGASDDSKLSASEQLGSEKNGEKRSNLADLMKKEASDGSTLSPDSASKGKGCFPEKAVGLLKKKAPVLSDKDFNPEFFQRLERRQSVEVVVPRRCKNNDEEESGLDDLNAMGSSNRLKNTQADDKQVKGRFDGNGSQARTSGDDKAGVVNGKETPGHHAPVSNTDNQSEGSFTSNRGNWSAIQRQLLQLERQQTNLMNMLQEFIGGSHDSMVTLEGRVRGLERIVEDMARDLSISSGRRANLTAGFGKYNSFANYPTGKYNGRAPGERGSQTDGAMRGRMWNSDMADDWFIPPHAASRNGQAGPRRSPRSEQYENEHMGNGRRGWDNKASGTIRFGEGPSARSVWQASKDEATLEAIRVAGEDGAVPRPTRVAVAPEAEAMGDDDNEGQERDPIWVSWSNAMHSLRVGDIDAAYAEVLCAGDQHLVIKLMDKTGPSLDQMSNEIANEALNFISQFLLDHSLYDICLSWSQQLLELVLQDGADTFGVPMELKTEILYNLQDACSTMDPPEDWEGPAPEQLVVQLASVWEIDLQQFDK
B3: SPR2(1-570)-GFP (domain or fragment, Arabidopsis thaliana, UniProt Q9T041 1-570, looked up)
chain: MSTPTTSGSAAKPTRPARSSSLATRSCSNSGSLTSFQAMVELKQKILTSISKLADRDTYQIAVEDLEKTIQSLTPETLPMFLNCLYDSCSDPKPAVKKECLHLLSYVCSLHCDSTAAHLTKIIAQIVKRLKDSDSGVRDACRDTIGALSGIYLKGKEEGTNTGSASLAVGLFVKPLFEAMGEQNKVVQSGASMCMARMVESAASPPVTSFQKLCPRICKLLSNSSFLAKASLLPVVSSLSQVGAIAPQSLESLLESIHDCLGSTDWVTRKAAAETLTALASHSSGLIKEKTDSTITVLETCRFDKIKPVRESVTEALQLWKKISGKYVDGASDDSKLSASEQLGSEKNGEKRSNLADLMKKEASDGSTLSPDSASKGKGCFPEKAVGLLKKKAPVLSDKDFNPEFFQRLERRQSVEVVVPRRCKNNDEEESGLDDLNAMGSSNRLKNTQADDKQVKGRFDGNGSQARTSGDDKAGVVNGKETPGHHAPVSNTDNQSEGSFTSNRGNWSAIQRQLLQLERQQTNLMNMLQEFIGGSHDSMVTLEGRVRGLERIVEDMARDLSISSGRRANL
B4: SPR2(1-500)-GFP (domain or fragment)
chain: MSTPTTSGSAAKPTRPARSSSLATRSCSNSGSLTSFQAMVELKQKILTSISKLADRDTYQIAVEDLEKTIQSLTPETLPMFLNCLYDSCSDPKPAVKKECLHLLSYVCSLHCDSTAAHLTKIIAQIVKRLKDSDSGVRDACRDTIGALSGIYLKGKEEGTNTGSASLAVGLFVKPLFEAMGEQNKVVQSGASMCMARMVESAASPPVTSFQKLCPRICKLLSNSSFLAKASLLPVVSSLSQVGAIAPQSLESLLESIHDCLGSTDWVTRKAAAETLTALASHSSGLIKEKTDSTITVLETCRFDKIKPVRESVTEALQLWKKISGKYVDGASDDSKLSASEQLGSEKNGEKRSNLADLMKKEASDGSTLSPDSASKGKGCFPEKAVGLLKKKAPVLSDKDFNPEFFQRLERRQSVEVVVPRRCKNNDEEESGLDDLNAMGSSNRLKNTQADDKQVKGRFDGNGSQARTSGDDKAGVVNGKETPGHHAPVSNTDNQSEGSF

Columns and labels:
[1] = biological target: the molecule itself; experiment: native gel or EMSA
[2] = biological target: taxol-stabilized microtubules of unlabeled porcine brain tubulin (porcine) (UniProt P02550); experiment: co-sedimentation

Binder | binding result [1] | Kd [2]
B1 | binds | –
B2 | binds | –
B3 | binds | 1.3 µM
B4 | – | 17.4 µM

Reference: doi:10.1101/2021.10.05.463238 (bioRxiv, 2021)
